Measurements from US20230203471A1, “METHOD AND PLATFORM FOR DISRUPTING INTRACELLULAR MICROTUBULES” (National Tsing Hua University, priority 2021, published 2023).
One block for each molecule: values may come before it.

Assays:
[1] = target: MT-binding domain of ensconsin-cyan fluorescent protein-FKBP-rapamycin binding domain (EMTB-CFP-FRB) (Artificial Sequence); assay: FRET live-cell imaging in co-transfected HeLa cells, 100 nM rapamycin
[2] = target: intracellular microtubules (MTs)
[3] = target: EMTB-YFP-CIBN (Artificial Sequence); assay: live-cell imaging in co-transfected COS7 cells, local blue light
[4] = system: EMTB-YFP-CIBN-labeled MTs in COS7 cells; assay: Blue-light-induced recruitment of Cry2 proteins onto EMTB-YFP-CIBN-labeled MTs and MT disassembly; assay type: cell-based, African green monkey; conditions: COS7 cells
Procedure: The procedures of photostimulation are as follows. COS7 cells were plated on poly(d-lysine)-coated coverslips and cultured in six-well plates (Thermo Scientific) for 48 hr. Before imaging, cells were incubated with SPY650-tubulin (1000-fold dilution; Spirochrome) at 37° C. for 1 hr. Local photostimulation was carried out with a fluorescence microscope (Nikon) equipped with a digital micromirror device, polygon 400 (MIGHTEX), and a 488-nm light source. Cells were illuminated with the blue light (5 sec on/1 sec off; 1.6 nW/µm^2) for the indicated duration. The mCherry and SPY650-tubulin were simultaneously imaged during photostimulation using Nikon element AR software.
The inventors next tried to use an optogenetic system to trigger MT disassembly in a sub-cellular region of interest during a specific period of time. Cryptochrome 2 (Cry2) (SEQ ID NO:14) and CIBN (N-terminal 170 amino acids of CIB1) (SEQ ID NO:15), two blue light-sensitive dimerizing partners, were used in our MT-manipulating system. Cry2, which was tagged with the red fluorescent protein mCherry (mCh—Cry2), was rapidly translocated onto EMTB—YFP—CIBN-labeled MTs only in regions illuminated with light (T½ = 34.6 ± 7.58 sec) and dissociated from MTs to the cytosol when the light was off (T½ = 28.2 ± 4.88 sec; see FIGS. 6A and 6B).
FIGS. 6A and 6B show using light to disassemble MTs in a reversible and location-specific manner. In FIG. 6A, COS7 cells co-transfected with EMTB—YFP—CIBN and mCh—Cry2 (red) were incubated with SPY650-tubulin (SPY650-tub) to visualize MTs; the cells were illuminated by blue light within a specified region (indicated by the dotted circle) for the indicated time period; scale bar, 10 µm.
The inventors then used light to control spastin-mediated MT disassembly in a spatially and temporally specific manner. dNSpastin3Q tagged with mCh-Cry2 was co-expressed with EMTB—YFP—CIBN in COS7 cells. MTs were labeled with SPY650-tubulin in these experiments.
FIGS. 6C and 6D show using light to disassemble MTs in a reversible and location-specific manner. In FIG. 6C, COS7 cells co-transfected with EMTB-YFP-CIBN and dNSpastin3Q-mCh—Cry2 were incubated with SPY650-tubulin to visualize MTs; the cells were illuminated by blue light as in FIG. 6A; scale bar, 10 µm. […] Data are shown as the mean ± S.E.M.

[5] = target: EMTB-YFP-CIBN (Artificial Sequence); assay: live-cell imaging in co-transfected COS7 cells, after blue light
[6] = target: T1, spastin (Mus musculus, UniProt Q9QYY8, K308Q/K309Q/K310Q); assay: Reversal of MT disruption by spastin inhibition and MT regrowth in HeLa cells; assay type: cell-based; conditions: regrowth in cytosol (acentrosome) after spastazoline
T1 construct: expressed in transfected cells; host or cells: HeLa (CCL-2)
T1 sequence (Q9QYY8 with tags, fused parts or gaps K308Q/K309Q/K310Q): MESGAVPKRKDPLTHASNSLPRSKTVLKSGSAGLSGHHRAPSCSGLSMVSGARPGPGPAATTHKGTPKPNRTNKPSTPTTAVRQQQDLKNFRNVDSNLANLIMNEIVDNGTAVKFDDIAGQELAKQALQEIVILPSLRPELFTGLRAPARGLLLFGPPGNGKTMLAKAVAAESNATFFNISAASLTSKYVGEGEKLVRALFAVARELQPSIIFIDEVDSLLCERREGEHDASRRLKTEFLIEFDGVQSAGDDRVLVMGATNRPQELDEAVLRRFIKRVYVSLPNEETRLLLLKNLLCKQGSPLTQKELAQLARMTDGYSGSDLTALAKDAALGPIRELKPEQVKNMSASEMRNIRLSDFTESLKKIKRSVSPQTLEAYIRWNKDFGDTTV
Procedure: FIGS. 2S to 2U show inhibition of spastin activity reverses MT disruption. In FIG. 2S, HeLa cells co-transfected with EMTB—CFP—FRB (black) and dNSpastin3Q-YFP-FKBP (green) were pre-treated with rapamycin for 28 min to induce acute MT disassembly; spastazoline (10 µM), a spastin inhibitor, was then added to the cultures to halt the MT disruption system; arrows indicate the centrosome-derived MTs; scale bar, 10 µm. […] Data (red) are shown as the mean ± SD. A Student’s t-test was performed to generate the indicated p-value.
Intriguingly, nascent MTs from the fragments derived from dNspastin3Q-mediated cleavage assembled at a polymerization rate of 0.92 ± 0.04 µm/sec, which was slightly slower than the regrowth rate of 1.17 ± 0.07 µm/sec for MTs from centrosomes (see FIG. 2U). […] In particular, microtubule filaments are composed of microtubule molecules. If they are only disassembled into microtubule molecules and the raw materials are still there, they would have the opportunity to quickly assemble them back. But if the microtubule molecules are degraded and the raw materials are gone, they can’t be quickly reassembled. In summary, rapid recruitment of dNSpastin3Q-YFP-FKBP onto MTs efficiently triggered MT disassembly in living cells upon dimerization induction.

[7] = system: ciliary axonemes and primary cilia in NIH3T3 cells; assay: Disruption of primary cilia in serum-starved NIH3T3 cells (live-cell imaging); assay type: cell-based, mouse; conditions: G0 NIH3T3 cells, CFP-FRB-MAP4m, rapamycin 100 nM
Procedure: The procedures of cell culture and transfection are as follows. African green monkey kidney cell line COS7 (CRL-1651), cervical cancer cell line HeLa (CCL-2), human osteosarcoma cell line U2OS (HTB-96), human embryonic kidney cell line HEK293T (CRL-3216), and mouse embryonic fibroblasts NIH3T3 cells (CRL-1658) were maintained at 37° C., 5% CO2, and 95% humidity in Dulbecco’s modified Eagle’s medium (DMEM) supplemented with 10% fetal bovine serum (FBS), and penicillin and streptomycin (Corning). To induce ciliogenesis, NIH3T3 cells were serum starved for 24 hr. COS7 cells were transfected with plasmid DNAs by using TurboFect transfection reagents (Thermo Fisher). HeLa, U2OS, HEK293T, and NIH3T3 cells were transfected with FuGENE HD (Promega). Transfected cells were incubated for 24-48 hr prior to imaging and other experiments.
The procedures of live-cell imaging are as follows. Live transfected cells cultured on poly(d-lysine)-coated glass coverslips (Hecht Assistent) were treated with either 100 nM rapamycin for rapid induction of protein dimerization and translocation or MT-targeting agents (10 µM nocodazole or 500 µM colchicine) during imaging. Live-cell imaging was conducted on a Nikon T1 inverted fluorescence microscope (Nikon) with a 60× oil objective (Nikon), a Prime camera (Photometrics), and 37° C., 5% CO2 heat stage (Live Cell Instrument). […]

[8] = system: mitotic spindles and intercellular bridges in HeLa cells; assay: Disruption of mitotic spindles and intercellular bridges in synchronized HeLa cells; assay type: cell-based; conditions: CFP-FRB-MAP4m, rapamycin 100 nM
Procedure: The procedures of cell synchronization are as follows. Plasmid DNA (i.e., DNA construct) transfection was carried out 20-24 hr prior to cell cycle synchronization. For synchronization, HeLa cells were treated with 2 mM thymidine (Sigma) for 16-18 hr to induce arrest at G1/S phase and then were treated with 2.5 ng/ml RO3306 (a selective ATP-competitive inhibitor of CDK1)(Sigma) for 12 hr to induce arrest at G2/M phase. After being washed with warm DMEM, cells were incubated with DMEM and 10% FBS at 37° C., 5% CO2 for 30-60 min to enrich the population of metaphase and telophase cells.
FIGS. 5K to 5N show rapid disruption of mitotic spindles and intercellular bridges. In FIG. 5K, HeLa cells co-transfected with H2B—mCherry (H2B—mCh; a chromosome marker; red), CFP—FRB—MAP4m (a marker of mitotic spindles; blue), and dNSpastin3Q-YFP-FKBP (green) were synchronized in metaphase and treated with rapamycin (100 nM) to induce dNSpastin3Q-YFP-FKBP recruitment to mitotic spindles; scale bar, 10 µm. In FIG. 5L, HeLa cells co-transfected with H2B—mCherry (red), CFP—FRB—MAP4m (intercellular bridges; blue), and dNSpastin3Q-YFP-FKBP (green) were treated with rapamycin (100 nM) to induce dNSpastin3Q-YFP-FKBP recruitment to intercellular bridges; arrows indicate the intercellular bridges; scale bar, 10 µm. […] Data are shown as the mean ± S.E.M. Dotted lines indicate the cell boundaries.

[9] = system: centrosomes in HeLa cells; assay: Effect of MT disruption treatment on PACT-labeled centrosomes in HeLa cells; assay type: cell-based; conditions: MT disruption treatment for 1 hr
Procedure: In FIG. 5O, HeLa cells co-transfected with EMTB—CFP—FRB (blue), dNSpastin3Q-YFP-FKBP (green), and PACT-mCh (a centrosomal marker; red) were treated with rapamycin (100 nM) and imaged; dotted lines indicate the cell boundary; insets show higher-magnification images of the centrosome regions; scale bar, 10 µm. […] Data are shown as the mean ± S.E.M.

EMTB-YFP-CIBN (Artificial Sequence), sequence (chain, as listed by the source): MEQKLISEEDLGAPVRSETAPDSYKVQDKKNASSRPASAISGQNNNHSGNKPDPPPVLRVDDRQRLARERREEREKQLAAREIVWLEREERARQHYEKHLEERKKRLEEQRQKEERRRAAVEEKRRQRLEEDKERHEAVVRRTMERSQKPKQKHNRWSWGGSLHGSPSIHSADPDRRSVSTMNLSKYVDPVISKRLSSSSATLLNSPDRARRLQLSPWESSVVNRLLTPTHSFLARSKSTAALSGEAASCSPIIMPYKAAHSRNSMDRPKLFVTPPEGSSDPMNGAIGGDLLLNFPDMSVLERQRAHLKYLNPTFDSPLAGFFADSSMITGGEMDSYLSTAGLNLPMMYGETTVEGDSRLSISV
MT-binding domain of ensconsin-cyan fluorescent protein-FKBP-rapamycin binding domain (EMTB-CFP-FRB) (Artificial Sequence), sequence (chain, as listed by the source): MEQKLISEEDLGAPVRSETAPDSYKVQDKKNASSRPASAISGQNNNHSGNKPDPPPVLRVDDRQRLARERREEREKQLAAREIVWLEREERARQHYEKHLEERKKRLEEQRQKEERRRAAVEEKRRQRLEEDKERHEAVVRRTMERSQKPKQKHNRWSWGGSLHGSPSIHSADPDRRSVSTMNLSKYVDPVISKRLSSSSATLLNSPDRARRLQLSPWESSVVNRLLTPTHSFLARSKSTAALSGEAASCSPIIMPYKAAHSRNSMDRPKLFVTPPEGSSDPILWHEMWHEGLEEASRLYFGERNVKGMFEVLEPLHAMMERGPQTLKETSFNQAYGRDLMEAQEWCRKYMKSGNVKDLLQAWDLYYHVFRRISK

T½ of translocation [1]: 55.4 s | half time of MT disruption (MT filament area) [2]: 53.1 min
Molecule: dNSpastin-YFP-FKBP-C2 domain of Lactadherin (dNSpastin-YFP-FKBP-C2Lact) (enzyme)

T½ of translocation onto MTs under light [3]: 34.6 s | T½ of dissociation from MTs when the light was off [5]: 28.2 s
B1: Cry2 tagged with the red fluorescent protein mCherry (mCh-Cry2) (protein)
chain: MKMDKKTIVWFRRDLRIEDNPALAAAAHEGSVFPVFIWCPEEEGQFYPGRASRWWMKQSLAHLSQSLKALGSDLTLIKTHNTISAILDCIRVTGATKVVFNHLYDPVSLVRDHTVKEKLVERGISVQSYNGDLLYEPWEIYCEKGKPFTSFNSYWKKCLDMSIESVMLPPPWRLMPITAAAEAIWACSIEELGLENEAEKPSNALLTRAWSPGWSNADKLLNEFIEKQLIDYAKNSKKVVGNSTSLLSPYLHFGEISVRHVFQCARMKQIIWARDKNSEGEESADLFLRGIGLREYSRYICFNFPFTHEQSLLSHLRFFPWDADVDKFKAWRQGRTGYPLVDAGMRELRATGWMHNRIRVIVSSFAVKFLLLPWKWGMKYFWDTLLDADLECDILGWQYISGSIPDGHELDRLDNPALQGAKYDPEGEYIRQWLPELARLPTEWIHHPWDAPLTVLKASGVELGTNYAKPIVDIDTARELLAKAISRTREAQIMIGAA
T½ of translocation onto EMTB-YFP-CIBN-labeled MTs in illuminated regions ([4]; blue light on): 34.6 ± 7.58 s | T½ of dissociation from MTs to the cytosol ([4]; light off): 28.2 ± 4.88 s | light-induced MT disassembly ([4]; local blue light illumination, SPY650-tubulin): did not lead to MT disassembly

polymerization rate of nascent MTs from fragments derived from cleavage [6]: 0.92 ± 0.04 µm/sec
B2: dNSpastin3Q: truncated spastin with three residues mutated to three glutamines, SEQ ID NO:6; used as tagged fusions (protein)
chain: MESGAVPKRKDPLTHASNSLPRSKTVLKSGSAGLSGHHRAPSCSGLSMVSGARPGPGPAATTHKGTPKPNRTNKPSTPTTAVRQQQDLKNFRNVDSNLANLIMNEIVDNGTAVKFDDIAGQELAKQALQEIVILPSLRPELFTGLRAPARGLLLFGPPGNGKTMLAKAVAAESNATFFNISAASLTSKYVGEGEKLVRALFAVARELQPSIIFIDEVDSLLCERREGEHDASRRLKTEFLIEFDGVQSAGDDRVLVMGATNRPQELDEAVLRRFIKRVYVSLPNEETRLLLLKNLLCKQGSPLTQKELAQLARMTDGYSGSDLTALAKDAALGPIRELKPEQVKNMSASEMRNIRLSDFTESLKKIKRSVSPQTLEAYIRWNKDFGDTTV
modifications: dNSpastin3Q
notes: used as tagged fusions
time to disassembly of axonemes and primary cilia [7]: ≤ 15 min | disruption of mitotic spindles and intercellular bridges [8]: quickly disrupted these MT-based structures | disruption of centrosomes [9]: did not disrupt centrosomes
